Test [1] addresses T1, ROR1 on human cancer cell lines (HepG2, MDA231, HT-29, SKOV-3) (human, UniProt Q01973 30-937).
T1 construct: whole, on cells; Endogenous ROR1 of tumour cell lines, not transfected cells; also called ROR1-positive cells; ROR1-expressing cell line SKOV-3
Kind of test: flow cytometry (FACS) on cancer cell lines. The text has this: Normal keratinocytes were used as a negative control (FIG. 4). (MFI: […] compared to the isotype).
(In flow cytometry, cells or beads pass a laser one at a time.)

Test [2] addresses T2, extracellular ROR1 protein (human, UniProt Q01973 30-406).
T2 construct: extracellular domain
Kind of test: ELISA. (In an ELISA, binding on a coated surface is turned into a signal by an enzyme label.)

Test [3] has as its target T3, ROR1 extracellular domain fused to human Fc (hFc) protein (human, UniProt Q01973 30-406).
T3 construct: extracellular domain; also called ROR1-human Fc fusion protein; human ROR1 antigen; not shown: human Fc (hFc)
Nature of the test: Western blot, anti-ROR1 scFv-mouse Fc fusion as primary antibody, anti-mouse IgG-HRP as secondary. The text has this: In this example, we generated a mouse monoclonal anti-ROR1 antibody using standard hybridoma technology. The mouse anti-ROR1 antibody (IgG1 type) detected extracellular ROR1 protein by ELISA (data not shown). We sequenced this hybridoma clone 2H6 and generated an scFv using VH and VL (see further in Example 2). […] The ROR1-human Fc fusion protein was detected with an antibody directed against the human Fc domain.

T3 sequence (Q01973 30-406): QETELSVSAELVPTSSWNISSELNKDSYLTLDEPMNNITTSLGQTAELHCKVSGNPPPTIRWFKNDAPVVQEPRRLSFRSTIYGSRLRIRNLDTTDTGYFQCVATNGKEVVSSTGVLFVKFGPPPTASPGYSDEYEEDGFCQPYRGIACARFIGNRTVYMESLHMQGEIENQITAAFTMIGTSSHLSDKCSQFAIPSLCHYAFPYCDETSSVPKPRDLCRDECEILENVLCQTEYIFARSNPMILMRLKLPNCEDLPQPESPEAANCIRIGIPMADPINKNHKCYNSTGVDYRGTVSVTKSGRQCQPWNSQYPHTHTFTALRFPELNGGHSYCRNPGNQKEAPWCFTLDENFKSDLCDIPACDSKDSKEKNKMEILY
T2 sequence (Q01973 30-406): as above
T1 sequence (Q01973 30-937): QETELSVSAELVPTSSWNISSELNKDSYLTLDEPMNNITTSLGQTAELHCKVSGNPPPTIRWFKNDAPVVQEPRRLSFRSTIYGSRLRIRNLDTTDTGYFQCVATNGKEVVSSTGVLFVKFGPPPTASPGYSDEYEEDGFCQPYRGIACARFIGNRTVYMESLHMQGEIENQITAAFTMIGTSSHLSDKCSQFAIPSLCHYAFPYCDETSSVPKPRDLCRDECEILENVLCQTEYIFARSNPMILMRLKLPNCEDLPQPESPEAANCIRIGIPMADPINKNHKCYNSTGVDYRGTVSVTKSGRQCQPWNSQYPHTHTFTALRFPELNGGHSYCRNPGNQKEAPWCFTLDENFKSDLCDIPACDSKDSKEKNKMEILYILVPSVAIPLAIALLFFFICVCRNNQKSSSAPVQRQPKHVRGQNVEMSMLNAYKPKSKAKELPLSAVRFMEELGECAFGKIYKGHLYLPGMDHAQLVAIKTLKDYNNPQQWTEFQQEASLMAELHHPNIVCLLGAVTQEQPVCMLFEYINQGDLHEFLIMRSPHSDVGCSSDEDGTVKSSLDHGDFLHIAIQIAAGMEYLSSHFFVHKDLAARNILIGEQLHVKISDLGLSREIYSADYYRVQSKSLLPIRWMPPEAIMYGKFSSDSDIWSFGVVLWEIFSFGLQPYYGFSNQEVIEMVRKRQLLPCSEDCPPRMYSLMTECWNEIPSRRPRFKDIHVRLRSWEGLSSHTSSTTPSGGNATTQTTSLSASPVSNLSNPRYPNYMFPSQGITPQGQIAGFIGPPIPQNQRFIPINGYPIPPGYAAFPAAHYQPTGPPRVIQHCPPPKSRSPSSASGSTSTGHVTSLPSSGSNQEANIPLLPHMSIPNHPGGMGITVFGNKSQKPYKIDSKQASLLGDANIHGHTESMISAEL

B1: mouse monoclonal anti-ROR1 antibody, hybridoma clone 2H6 (antibody, V domains shown)
VH: VKLVESGGGLVKPGGSLKLSCAASGFTFSTYAMSWVRQTPEKRLEWVASISSGGNTYYPDSVKGRFTISRDNARHILYLQMSSLRSEDTAMYYCARDSYYFGNSVYYAMDYWGQGTSVTVSS
VL: DIKMTQSPSSMYASLGERVTITCKASQDINSYFSWFQQKPGKSPKTLIYRANRLVDGVPSRFSGSGSGQDYSLTISSLEYEDMGIYYCLQYDEFPYTFGGGTKLEIKR
notes: Hybridoma antibody, mouse IgG1 type; also called mouse anti-ROR1 antibody (IgG1 type); mouse anti-ROR1 monoclonal antibody
For B1, the binding result in test [1] and in test [2] was “binds” in each case.

B2: anti-ROR1 scFv-mouse Fc fusion (scFv of clone 2H6) (Fc fusion)
scFv: VKLVESGGGLVKPGGSLKLSCAASGFTFSTYAMSWVRQTPEKRLEWVASISSGGNTYYPDSVKGRFTISRDNARHILYLQMSSLRSEDTAMYYCARDSYYFGNSVYYAMDYWGQGTSVTVSSGGGGSGGGGSGGGGSDIKMTQSPSSMYASLGERVTITCKASQDINSYFSWFQQKPGKSPKTLIYRANRLVDGVPSRFSGSGSGQDYSLTISSLEYEDMGIYYCLQYDEFPYTFGGGTKLEIKR
notes: Used as the primary antibody in the Western blot. scFv is VH-(G4S)3-VL; The mouse Fc part is not described; also called anti-ROR1 scFv (mouse clone 2H6); not shown: mouse Fc
In the case of B2, in test [3], the binding result is “binds”.
